# Residue numbers refer to the chain shown, from its start. Numbers in names are those of the source.
# B1: D2-BGL (WT D2; Pp D2-BGL) (Chaetomella raphigera) (protein)
# chain: PGDGDWAAAYKKATAALAKLSNTDKASIVTGVGWEKGPCVGNTAAVASIGLPELCYQDGPLGIRFVQNVTAFPTGIQTASTWDISLIYSRGLALGQEAKALGINVQLGPVAGPIGKIPEAGRNWEGFSPDPYLNGLAMSNTITGMQDAGVQACAKHFIGNEQETNRDTMSSNIDDRTFHELYLWPFADAIKANVASIMCSYNKFNETYACENNFLTTILKGELDFQGFVVSDWAAQHTTIGSANAGLDVAMPGDNFGDNYYLWGSNLLAAISNGTVAQSRLDDMVTRILASWYFVGQDQGYPAVTWSSWNGGLGGPNVQADHKQVARAIARDGIVLLTNKNKALPLKKPASLAIIGQDAIDNPAGINSCSDRGCDTGHLAMGWGSGTADFPYLVAPLDAITPLAQAQGTKLVLSTTDSTSAAASAAAAAETAIVFITADSGEGYITVDGQLGDRNSLAPWNNGTALVQAVASASKNVIVVINSVGPLILEDILALSSVKAIVWAGVSGQESGNGLADILYGSVSPSGKLPYTIAKQASDYGTAIVPGDDNFPEGLFVDYRHFDQANIQPRFEFGYGLSYTTFQYSQLTAKYSDTSAGSSTLAPGGPKGLYDIVATVTAKVTNSGTVSGAEVAQLYIGLPGSAPASPPKQLRGFDKISLKPGKSGTVTFNLRRKDLSYWDTASAQWVTPTSGEFSLYVGASSRDIRLQGSLKCSGQGIRKGGH
# B2: D2-BGL (WT D2; Pp D2-BGL) (Chaetomella raphigera; D224G/F256M/Y260D) (protein)
# chain: B1 chain with D224G, F256M, Y260D
# Key:
# [1] = molecular target: T1, D2-BGL (WT D2; Pp D2-BGL) (Chaetomella raphigera, UniProt A0A068FT77, D224G/F256M/Y260D); assay: p-nitrophenol release at […] nm, […] pNPG, substrate inhibition fit; format: biochemical; details: 50 mM NaOAc pH 5, 55 °C
# T1 construct: 722 residues, 76 kDa theoretical; alpha-mating factor secretion signal upstream (pGAPZalphaC-D2); expressed in Pichia pastoris SMD 1168; glycosylated
# T1 sequence (A0A068FT77 entry or part of it D224G/F256M/Y260D): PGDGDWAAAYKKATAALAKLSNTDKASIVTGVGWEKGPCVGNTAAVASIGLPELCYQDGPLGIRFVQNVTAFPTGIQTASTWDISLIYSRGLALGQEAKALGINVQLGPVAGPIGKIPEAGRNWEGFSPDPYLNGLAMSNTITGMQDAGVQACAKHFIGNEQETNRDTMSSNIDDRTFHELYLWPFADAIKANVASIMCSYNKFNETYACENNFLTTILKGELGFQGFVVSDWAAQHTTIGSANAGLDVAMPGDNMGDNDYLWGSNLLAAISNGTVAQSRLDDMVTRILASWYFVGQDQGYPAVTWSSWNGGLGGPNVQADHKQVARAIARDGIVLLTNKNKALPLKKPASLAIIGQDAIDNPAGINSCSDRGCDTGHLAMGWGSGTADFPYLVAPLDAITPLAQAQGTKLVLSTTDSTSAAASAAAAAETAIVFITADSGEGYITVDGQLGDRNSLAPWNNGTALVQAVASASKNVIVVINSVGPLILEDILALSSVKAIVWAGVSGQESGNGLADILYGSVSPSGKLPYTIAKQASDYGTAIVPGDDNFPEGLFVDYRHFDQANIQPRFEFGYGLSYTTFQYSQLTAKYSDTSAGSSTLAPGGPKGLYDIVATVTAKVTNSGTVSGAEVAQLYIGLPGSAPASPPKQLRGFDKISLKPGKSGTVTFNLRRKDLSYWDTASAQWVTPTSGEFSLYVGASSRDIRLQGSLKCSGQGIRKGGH
# [2] = molecular target: T1, D2-BGL (WT D2; Pp D2-BGL); assay: inhibition of pNPG hydrolysis with […] glucose; format: biochemical; details: pNPG as substrate; 50 mM NaOAc pH 5, 55 °C; product inhibition; read-out: Mut M
# [3] = molecular target: T2, D2-BGL (WT D2; Pp D2-BGL) (Chaetomella raphigera, UniProt A0A068FT77); assay: inhibition of pNPG hydrolysis with […] glucose; format: biochemical; details: pNPG as substrate; 50 mM NaOAc pH 5, 55 °C; product inhibition
# T2 construct: 722 residues, 76 kDa theoretical; alpha-mating factor secretion signal upstream (pGAPZalphaC-D2); expressed in Pichia pastoris SMD 1168; glycosylated
# T2 sequence (A0A068FT77 1-722): B1 chain
# [4] = substrate: O=[N+]([O-])c1ccc(O[C@@H]2O[C@H](CO)[C@@H](O)[C@H](O)[C@H]2O)cc1; assay: purified protein; details: 50 mM NaOAc pH 5, 55 °C
Molecule,kinetic constant from substrate inhibition fit [1],Ki [2],Ki [3],Km [4],Vmax [4]
"O=[N+]([O-])c1ccc(O[C@@H]2O[C@H](CO)[C@@H](O)[C@H](O)[C@H]2O)cc1 [pNPG, p-nitrophenyl β-D-glucopyranoside]",3.21 ± 0.56 mM,,,,
OC[C@H]1OC(O)[C@H](O)[C@@H](O)[C@@H]1O (stereo partly shown) [glucose],,1590 ± 70 µM,3230 ± 1080 µM,,
B1,,,,310 ± 140 µM,575 µM/min
B2,,,,180 ± 50 µM,374 µM/min

# From publication PMC8166090, “Improvements of the productivity and saccharification efficiency of the cellulolytic β-glucosidase D2-BGL in Pichia pastoris via directed evolution” (Biotechnology for Biofuels, 2021)
